Series [1] has as its target c-met extracellular domain-IgG1-His6 (Homo sapiens, UniProt P08581 P08581:25-932). Put plainly: filter; biphasic; lower affinity Kd ~5 nM. To be noted: chain copies: 2.
The target of series [2] is T1, HGF (hepatocyte growth factor/scatter factor) (UniProt P14210;P14210 P14210:32-494,P14210:495-728). Kind of series: filter; HBSMC, 37C; table cites SEQ 15, which is a template in the listing. To be noted: tags: R&D Systems. The protocol: (§1) In binding reactions, RNA concentrations were kept as low as possible—between 1 and 20 pM—to ensure equilibrium in conditions of protein excess. Oligonucleotides were incubated for 15 minutes at 37° C. with varying amounts of the protein in 43 µl of the binding buffer. Thirty-two microliters of each binding mixture placed on pre-wet 0.45 µm nitrocellulose filters under suction. Each well was immediately washed with 0.5 ml binding buffer. The amount of radioactivity retained on the filters was quantitated by imaging. The radioactivity that bound to filters in the absence of protein was used for background correction. The percentage of input oligonucleotide retained on each filter spot was plotted against the corresponding log protein concentration. The nonlinear least square method was used to obtain the dissociation constant (K_d; reference Jellinek, Lynott et al. 1993, Proc. Natl. Acad. Sci. USA. 90:11227–31).
T1 sequence (P14210 32-494, chain 1 of 2): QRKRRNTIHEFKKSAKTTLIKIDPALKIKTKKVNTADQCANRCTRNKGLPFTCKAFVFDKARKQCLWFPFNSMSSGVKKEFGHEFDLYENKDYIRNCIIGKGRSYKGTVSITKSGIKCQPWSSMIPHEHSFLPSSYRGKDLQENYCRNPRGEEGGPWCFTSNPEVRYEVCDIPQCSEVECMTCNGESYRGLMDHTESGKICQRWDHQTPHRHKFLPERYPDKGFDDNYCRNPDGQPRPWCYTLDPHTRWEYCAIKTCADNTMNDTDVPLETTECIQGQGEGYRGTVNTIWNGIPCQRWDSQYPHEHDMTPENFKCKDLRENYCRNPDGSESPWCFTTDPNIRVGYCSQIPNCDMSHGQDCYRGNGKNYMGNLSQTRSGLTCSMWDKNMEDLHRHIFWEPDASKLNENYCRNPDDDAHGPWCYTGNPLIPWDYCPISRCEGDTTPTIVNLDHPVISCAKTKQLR
T1 sequence (P14210 495-728, chain 2 of 2): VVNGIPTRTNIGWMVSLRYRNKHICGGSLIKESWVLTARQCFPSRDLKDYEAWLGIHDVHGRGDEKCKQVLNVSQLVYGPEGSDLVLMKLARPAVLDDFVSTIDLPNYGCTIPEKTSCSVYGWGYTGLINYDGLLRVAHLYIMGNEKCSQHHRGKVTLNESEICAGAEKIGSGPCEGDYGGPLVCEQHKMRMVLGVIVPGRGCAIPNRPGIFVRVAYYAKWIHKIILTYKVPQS

Series [3] has as its target T1, HGF (hepatocyte growth factor/scatter …). Kind of series: filter; 36mer; PEGylated form inhibits HGF in cells. Particulars: tags: R&D Systems. The protocol: as §1
The target is the same in series [4]. Put plainly: filter; HBSMC, 37C; SEQ 43 in listing has a deviating 3' end. To be noted: tags: R&D Systems. The protocol:
as §1

Series [5] shares this target. Kind of series: filter; HBSMC, 37C; worse than random pool. Particulars: tags: R&D Systems. On the procedure: as §1
The target is the same in series [6]. Kind of series: filter; HBSMC, 37C; SEQ 108 in listing duplicates SEQ 107, table sequence used. To be noted: tags: R&D Systems. On the procedure: as §1

Sequence of c-met extracellular domain-IgG1-His6 (P08581 25-932, one chain of several): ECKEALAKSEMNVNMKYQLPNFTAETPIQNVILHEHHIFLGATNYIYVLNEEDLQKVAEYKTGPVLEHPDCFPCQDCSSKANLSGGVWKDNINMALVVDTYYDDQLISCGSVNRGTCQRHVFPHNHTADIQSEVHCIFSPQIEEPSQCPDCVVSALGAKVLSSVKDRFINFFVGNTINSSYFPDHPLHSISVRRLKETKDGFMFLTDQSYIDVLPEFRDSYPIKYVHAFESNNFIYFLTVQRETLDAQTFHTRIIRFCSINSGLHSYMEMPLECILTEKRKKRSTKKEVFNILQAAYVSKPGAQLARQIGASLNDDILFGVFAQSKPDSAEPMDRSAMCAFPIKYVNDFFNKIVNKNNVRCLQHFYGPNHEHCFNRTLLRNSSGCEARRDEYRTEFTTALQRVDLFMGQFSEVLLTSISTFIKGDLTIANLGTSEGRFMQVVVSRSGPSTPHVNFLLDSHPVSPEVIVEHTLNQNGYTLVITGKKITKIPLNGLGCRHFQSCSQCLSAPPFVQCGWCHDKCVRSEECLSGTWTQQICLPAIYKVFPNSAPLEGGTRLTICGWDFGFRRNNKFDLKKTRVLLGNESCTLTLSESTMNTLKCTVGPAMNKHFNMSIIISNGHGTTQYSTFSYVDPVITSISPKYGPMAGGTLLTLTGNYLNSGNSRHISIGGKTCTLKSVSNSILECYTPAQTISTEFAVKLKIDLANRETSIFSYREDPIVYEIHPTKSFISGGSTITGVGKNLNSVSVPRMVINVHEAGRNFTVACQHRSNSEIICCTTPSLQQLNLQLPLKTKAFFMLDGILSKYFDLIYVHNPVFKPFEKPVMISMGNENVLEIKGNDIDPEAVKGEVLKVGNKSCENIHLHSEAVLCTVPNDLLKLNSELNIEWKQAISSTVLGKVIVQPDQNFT

B1: 7c-1 (ssRNA)
RNA: GGGAGGACGAUGCGGUUUGACUAUGUCUGACGGGUCUGUGGUCAAUUCCGCCCCCAGACGACUCGCCCGA
modifications: 2'-F pyrimidines
B1: in series [1], the Kd was approximately 0.05 nM.

B2: 8-117 (ssRNA)
RNA: GGGAGGACGAUGCGGUCCCAAGUUUCAGGGCGUUUCUUCCUCGUCCAGACGACUCGCCCGA
modifications: 2'-F pyrimidines
In turn, B2 registered a Kd in series [2] of 0.13 nM.
In turn, GGACGAUGCGGCGAGUGCCUGUUUAUGUCAUCGUCC (ssRNA, 2'-F pyrimidines; NX22354 formulation carries 5'-40K PEG and 3'-dT cap) [NX22354 (36mer of 8-102)] yielded a Kd in series [3] of 0.1 nM.

B3: 11-106 (ssRNA)
RNA: GGGAGGACGAUGCGGCGAUGAUGCCUGUUUAUGUCGAUGUCCCCCCAGACGACUCGCCCGA
modifications: 2'-F pyrimidines
In series [4], B3 came in with a Kd of 0.12 nM.

B4: 8-151 (ssRNA)
RNA: GGGAGGACGAUGCGGAGGACUAAUCCCUAAGGAAUAGCUUGCCCGCAGACGACUCGCCCGA
modifications: 2'-F pyrimidines
For the molecule B4, binding in series [5] was characterised by a dissociation constant (Kd) of 8 nM.

B5: 10-17 (ssRNA)
RNA: GGGAGAUAAGAAUAAACGCUCAAAACCCUGUUGGCGUGACGUCCCGACCCUCCUUCGACAGGAGGCUCACAACAGGC
modifications: 2'-F pyrimidines
In turn, B5 had a Kd in series [6] of 0.56 nM.

As a reminder, the Kd is the concentration at which binding is half-saturated.

The values above are taken from patent US6344321, “Nucleic acid ligands which bind to hepatocyte growth factor/scatter factor (HGF/SF) or its receptor c-met” (Gilead Sciences, Inc.).
